Data from article PMC3664666 (Science signaling, 2012).

Target: T1, phosphorylated Mt-MviN KHD 681-963 (M. tuberculosis, UniProt P9WJK2 681-963, phosphothreonine at 947)
T1 sequence: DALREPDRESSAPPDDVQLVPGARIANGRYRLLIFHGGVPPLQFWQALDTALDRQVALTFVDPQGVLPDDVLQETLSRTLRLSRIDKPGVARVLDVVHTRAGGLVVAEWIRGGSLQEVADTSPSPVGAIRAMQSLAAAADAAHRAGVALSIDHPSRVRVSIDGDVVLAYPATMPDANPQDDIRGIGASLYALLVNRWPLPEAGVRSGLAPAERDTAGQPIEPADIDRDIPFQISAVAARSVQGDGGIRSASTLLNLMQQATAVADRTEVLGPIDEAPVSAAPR
Assay: ITC

B1: FhaA FHA domain (residues 390 to 525) (domain or fragment)
chain: PQGGGYAEPAGRDYDYGQSGAPDYGQPAPGGYSGYGQGGYGSAGTSVTLQLDDGSGRTYQLREGSNIIGRGQDAQFRLPDTGVSRRHLEIRWDGQVALLADLNSTNGTTVNNAPVQEWQLADGDVIRLGHSEIIVR
For B1, the Kd was 58 ± 2 nM.
